The values that follow come from US6818617B1 (Temple University- Of The Commonwealth System of Higher …, priority 1997, dated 2004).

Where two headings read alike, the source gives them in different places. Where a SMILES comes first, the peptide text is derived from it. Bridges are numbered along the chain shown (N, C = ends). Where no end group is shown, it is not given here.

Assay [1] addresses T1, αIIbβ3 (Homo sapiens, UniProt P05106+P08514). Set-up: endogenous in cells; host or cells: platelets in platelet rich plasma. The following applies: after reduction and ethylpyridylethylation; Calvete et al.; cited from earlier work.
Assay [2] has as its target T2, α6β1 (Homo sapiens, UniProt P05556+P23229).
T2 construct: expressed in transfected cells; host or cells: K562 transfected with α6
As to the kind of experiment: K562 (α6+) cell adhesion to laminin. Type of assay: cell-based. The protocol: (§1) Adhesion of cultured cells labeled with 5-chloromethylfluorescein diacetate (CMFDA) was performed as described earlier (Marcinkiewicz et al., Blood 90:1565-1575 (1997)). […] Wells were blocked by 1% BSA in HBSS buffer. Cells were labeled with fluorescein by incubation with 12.5 AM CMFDA in HBSS buffer containing 1% BSA at 37° C. by 15 min. Unbound label was removed by washing with the same buffer. Labeled cells (1×10^5 per sample) were added to the well in the presence or absence of inhibitors and incubated at 37° C. for 30 min. Unbound cells were removed by aspiration, the wells were washed and bound cells were lysed by adding 0.5% Triton X-100. In parallel the standard curve was prepared in the same plate from known concentrations of labelled cells. The plate was read using a Cytofluor 2350 fluorescence plate reader (Millipore, Bedford, Mass.) at 485 nm EX(excitation) filter and 530 nm (emmision) filter.
(§2) The effect of each peptide on cell adhesion was determined as described above. […] Cells that attached to the plates were lysed with detergent, and fluorescence intensity was measured. Percent inhibition was measured at each concentration and IC50 was determined.

In assay [3] the target is T3, α4β1 (UniProt G3HZ55+P13612). As to the kind of experiment: α4B2 (CHOα4+/α5−) cell adhesion to immobilized VCAM-1. The following applies: α4B2 (CHOα4+/α5−) cells, ligand VCAM-1. Type of assay: cell-based, human. Set-up: expressed in transfected cells; host or cells: B2 CHO cells (α5-deficient), gift of Dr. Y. Takada. The protocol: as §1
Chinese hamster ovary cells transfected with human α4 integrin were provided by Dr. Y. Takada (Scripps Research Institute, La Jolla, Calif.). […] The bound cells were lysed with 0.5% Triton X-100, and fluorescence was measured.
as §2

The target in assay [4] is T4, α4β7 (Homo sapiens, UniProt P13612+P26010).
T4 construct: endogenous in cells; host or cells: JY cells (A11); RPMI 8866 cells (A12)
As to the kind of experiment: RPMI 8866 cell adhesion to MadCAM-1. In kind it is cell-based. The settings on record: RPMI 8866 cells, α4β7, ligand MadCAM-1. The protocol: as §1, §2

Assay [5] has as its target T1, αIIbβ3. As to the kind of experiment: ADP-induced platelet aggregation in platelet rich plasma (ADP PA). The settings on record: Platelets, αIIbβ3, ligand Fg, 30 μM ADP. Type of assay: cell-based. The arrangement: endogenous in cells; host or cells: platelets in platelet rich plasma. Here is the method:
(§3) Blood from a healthy donor was collected into a syringe containing sodium citrate as an anticoagulant. The anticoagulated blood was centrifuged at 400 g for 17 minutes, and platelet rich plasma (PRP) was removed by aspiration.

In assay [6] the test system is α4β1 and α4β7 integrins. As to the kind of experiment: Panel of α4 integrin cell adhesion assays. In kind it is cell-based. The settings on record: at 10 μM. Here is the method:
as §1, §2

Assay [7] deals with T5, α4β1 (Homo sapiens, UniProt P05556+P13612).
T5 construct: host or cells: Jurkat
As to the kind of experiment: Jurkat cell adhesion to immobilized VCAM-1. Type of assay: cell-based. The protocol:
as §1
The cell adhesion assay (as described in Example 1) was used to study the inhibitory effect of the eluted fractions on Jurkat cell adhesion to immobilized VCAM-1 and on K562 cell adhesion to fibronectin. Recombinant VCAM-1 (0.5 μg/well) or fibronectin (0.5 μg/well) were immobilized overnight at 4° C. on a 96-well plate (Falcon) in PBS buffer. After blocking, the CMFDA-labeled cells were added to each well in the presence of 5 μg per sample of protein from selected fractions.
Recombinant human VCAM-1 (0.5 μg/well) was immobilized in the wells of an ELISA plate overnight in PBS buffer. The plate was blocked using HBSS buffer containing 1% BSA. […] The plate was incubated for 30 minutes at 37° C. Unbound cells were removed by aspiration and the wells were washed with HBSS buffer.
as §2

Assay [8] concerns αIIbβ3, αvβ3, α5β1. As to the kind of experiment: Panel of RGD-selective integrin assays (platelet aggregation and cell adhesion). Type of assay: cell-based. The settings on record: range over the panel (Table 1); read-out: concentrations of potent inhibition of αIIbβ3-dependent platelet aggregation and αIIbβ3-, αvβ3-, α5β1-dependent cell adhesion. The protocol: as §2, §3
The target of assay [9] is T3, α4β1. As to the kind of experiment: A2 (CHOα4+) cell adhesion to immobilized VCAM-1. The following applies: A2 (CHOα4+) cells, ligand VCAM-1. Type of assay: cell-based, human. The arrangement: expressed in transfected cells; host or cells: CHO (A2 cells, α4+ α5+), gift of Dr. Y. Takada. The protocol: as §1, §2
Assay [10] deals with T6, αvβ3 (Homo sapiens, UniProt P05106+P06756).
T6 construct: expressed in transfected cells; host or cells: CHO (VNRC3 cells), gift of Dr. M. Ginsberg
As to the kind of experiment: VNRC3 (CHOαvβ3+) cell adhesion to immobilized vitronectin. Type of assay: cell-based. The following applies: VNRC3 (CHOαvβ3+) cells, ligand Vn. Here is the method:
as §1, §2

The target in assay [11] is T1, αIIbβ3. As to the kind of experiment: A5 (CHOαIIbβ3+) cell adhesion to immobilized fibrinogen. In kind it is cell-based. The following applies: A5 (CHOαIIbβ3+) cells, ligand Fg. Here is the method: as §1, §2
For assay [12], the target named is T7, α5β1 (Homo sapiens, UniProt P05556+P08648).
T7 construct: host or cells: K562
As to the kind of experiment: K562 cell adhesion to immobilized fibronectin. Type of assay: cell-based. The following applies: 5 μg per sample of protein from fraction. The protocol: as §1

In assay [13] the test system is lymphocyte infiltration of pancreatic Langerhans islets. As to the kind of experiment: Lymphocyte infiltration of Langerhans islets in Non Obese Diabetic (NOD) mice. Type of assay: in vivo, mouse. The settings on record: for effect on lymphocyte infiltration in pancreatic islets of NOD mice (in words): i.p. three times per week, nine weeks. The protocol: Female NOD mice from […] of age were purchased from Jackson Laboratory (Bar Harbor, Me.).
After nine weeks of treatment the animals were sacrificed by exposure to CO2. The pancreas was removed, frozen, and stored at −70° C. until the histological analysis. For the histological analysis, five μm sections of frozen tissue were fixed with acetone. For detection of infiltrating lymphocytes, the sections were stained with hematoxylin/eosin, and observed by light microscopy.

The test system of assay [14] is MV3 cells. The settings on record: immune deficient mice; cited from earlier work.
Assay [15] has as its system Jurkat cells. As to the kind of experiment: Adhesion of Jurkat cells to immobilized EC3. In kind it is cell-based. The following applies: 1 mM. The protocol:
as §1
The adhesion study was performed using CMFDA-labeled Jurkat cells in the absence or presence 1 mM GRGDSP or GRGESP, or 10 μg/ml HP 2/1. Competition between EC3 and HP2/1 was also confirmed in cell suspension using FACS analysis. […] The experiment was performed using flow cytometry. […] The samples were fixed by addition of 1% paraformaldehyde before measurement of fluorescence intensity.

The test system of assay [16] is α4β1 (VLA-4) integrin. The settings on record: rabbit cardiac allografts; cited from earlier work.

T2 sequence (P23229 24-938 limits assumed): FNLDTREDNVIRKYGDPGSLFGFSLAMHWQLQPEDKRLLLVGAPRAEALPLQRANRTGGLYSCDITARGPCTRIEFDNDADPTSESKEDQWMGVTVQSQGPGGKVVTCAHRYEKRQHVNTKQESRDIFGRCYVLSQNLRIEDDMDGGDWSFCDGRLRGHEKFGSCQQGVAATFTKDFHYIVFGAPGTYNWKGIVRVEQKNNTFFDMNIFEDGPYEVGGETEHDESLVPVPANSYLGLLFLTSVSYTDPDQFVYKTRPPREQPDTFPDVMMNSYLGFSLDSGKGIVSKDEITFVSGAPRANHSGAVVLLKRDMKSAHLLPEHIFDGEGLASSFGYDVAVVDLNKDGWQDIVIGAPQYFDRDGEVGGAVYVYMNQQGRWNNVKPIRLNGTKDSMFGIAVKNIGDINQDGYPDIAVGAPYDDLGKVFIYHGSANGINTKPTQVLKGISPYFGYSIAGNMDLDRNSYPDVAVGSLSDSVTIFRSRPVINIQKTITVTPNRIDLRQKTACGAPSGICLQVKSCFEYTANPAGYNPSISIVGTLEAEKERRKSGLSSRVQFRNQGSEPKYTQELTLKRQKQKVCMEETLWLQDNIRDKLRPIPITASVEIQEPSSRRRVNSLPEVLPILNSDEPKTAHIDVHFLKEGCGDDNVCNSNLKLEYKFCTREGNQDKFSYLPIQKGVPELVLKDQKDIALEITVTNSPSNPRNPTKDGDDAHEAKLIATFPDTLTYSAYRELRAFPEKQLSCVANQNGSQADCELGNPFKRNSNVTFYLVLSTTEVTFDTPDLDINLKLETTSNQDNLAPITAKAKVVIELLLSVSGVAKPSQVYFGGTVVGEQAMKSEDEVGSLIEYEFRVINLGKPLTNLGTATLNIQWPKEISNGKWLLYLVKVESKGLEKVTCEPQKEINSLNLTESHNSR
T2 sequence (P23229 942-1130 partner limits assumed): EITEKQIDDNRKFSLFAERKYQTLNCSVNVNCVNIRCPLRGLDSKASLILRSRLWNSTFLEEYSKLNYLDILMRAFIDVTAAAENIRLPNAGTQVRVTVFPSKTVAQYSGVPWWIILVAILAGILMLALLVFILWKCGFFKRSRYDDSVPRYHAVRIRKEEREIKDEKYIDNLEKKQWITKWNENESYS
T2 sequence (P05556 21-798): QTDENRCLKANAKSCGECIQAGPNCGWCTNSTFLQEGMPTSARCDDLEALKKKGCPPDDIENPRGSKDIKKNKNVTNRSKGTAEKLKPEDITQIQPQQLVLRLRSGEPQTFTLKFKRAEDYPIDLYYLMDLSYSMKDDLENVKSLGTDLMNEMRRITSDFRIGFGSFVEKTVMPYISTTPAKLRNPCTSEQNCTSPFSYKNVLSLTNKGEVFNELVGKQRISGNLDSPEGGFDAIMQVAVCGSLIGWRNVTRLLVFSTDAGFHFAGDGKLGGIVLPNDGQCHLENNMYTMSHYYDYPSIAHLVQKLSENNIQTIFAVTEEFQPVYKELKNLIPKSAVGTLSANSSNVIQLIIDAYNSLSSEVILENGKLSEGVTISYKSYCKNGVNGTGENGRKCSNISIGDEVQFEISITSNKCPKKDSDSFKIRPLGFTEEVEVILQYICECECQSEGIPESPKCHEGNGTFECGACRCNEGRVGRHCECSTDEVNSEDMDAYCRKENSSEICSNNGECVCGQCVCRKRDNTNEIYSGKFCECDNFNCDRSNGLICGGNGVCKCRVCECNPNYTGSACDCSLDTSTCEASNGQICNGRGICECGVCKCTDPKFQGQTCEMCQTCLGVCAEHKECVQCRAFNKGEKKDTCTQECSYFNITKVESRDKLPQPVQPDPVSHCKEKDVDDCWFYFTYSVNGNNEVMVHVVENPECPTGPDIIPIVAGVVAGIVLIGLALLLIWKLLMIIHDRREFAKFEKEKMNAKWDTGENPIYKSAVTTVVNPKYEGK
T6 sequence (P06756 31-889 limits assumed): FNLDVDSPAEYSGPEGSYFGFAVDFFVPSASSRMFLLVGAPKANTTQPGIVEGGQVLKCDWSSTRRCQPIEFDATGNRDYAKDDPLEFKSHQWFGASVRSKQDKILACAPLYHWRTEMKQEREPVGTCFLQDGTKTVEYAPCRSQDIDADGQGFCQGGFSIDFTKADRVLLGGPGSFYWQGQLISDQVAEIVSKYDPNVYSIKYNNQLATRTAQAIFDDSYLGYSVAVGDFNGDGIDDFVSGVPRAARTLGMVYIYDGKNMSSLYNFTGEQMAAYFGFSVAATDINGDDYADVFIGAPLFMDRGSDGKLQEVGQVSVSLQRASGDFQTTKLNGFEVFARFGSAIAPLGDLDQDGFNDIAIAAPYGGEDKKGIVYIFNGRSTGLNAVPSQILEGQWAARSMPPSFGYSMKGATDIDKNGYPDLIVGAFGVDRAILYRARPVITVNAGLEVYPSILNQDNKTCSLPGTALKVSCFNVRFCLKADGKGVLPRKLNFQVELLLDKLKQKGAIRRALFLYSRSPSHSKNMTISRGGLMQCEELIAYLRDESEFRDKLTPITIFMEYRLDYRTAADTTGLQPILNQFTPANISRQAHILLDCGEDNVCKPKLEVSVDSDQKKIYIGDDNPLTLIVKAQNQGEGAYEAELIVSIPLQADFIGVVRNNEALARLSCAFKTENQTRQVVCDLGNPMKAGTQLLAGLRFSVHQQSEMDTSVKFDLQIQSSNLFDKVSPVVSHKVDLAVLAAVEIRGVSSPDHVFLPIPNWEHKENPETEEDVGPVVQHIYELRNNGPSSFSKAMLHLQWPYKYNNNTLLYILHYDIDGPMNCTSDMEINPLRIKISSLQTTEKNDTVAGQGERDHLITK
T6 sequence (P06756 891-1048 partner limits assumed): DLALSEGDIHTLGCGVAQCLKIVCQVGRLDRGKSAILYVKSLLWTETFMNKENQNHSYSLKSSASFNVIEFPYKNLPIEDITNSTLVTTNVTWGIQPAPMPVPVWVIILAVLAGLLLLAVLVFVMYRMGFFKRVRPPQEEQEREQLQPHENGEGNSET
T6 sequence (P05106 27-788): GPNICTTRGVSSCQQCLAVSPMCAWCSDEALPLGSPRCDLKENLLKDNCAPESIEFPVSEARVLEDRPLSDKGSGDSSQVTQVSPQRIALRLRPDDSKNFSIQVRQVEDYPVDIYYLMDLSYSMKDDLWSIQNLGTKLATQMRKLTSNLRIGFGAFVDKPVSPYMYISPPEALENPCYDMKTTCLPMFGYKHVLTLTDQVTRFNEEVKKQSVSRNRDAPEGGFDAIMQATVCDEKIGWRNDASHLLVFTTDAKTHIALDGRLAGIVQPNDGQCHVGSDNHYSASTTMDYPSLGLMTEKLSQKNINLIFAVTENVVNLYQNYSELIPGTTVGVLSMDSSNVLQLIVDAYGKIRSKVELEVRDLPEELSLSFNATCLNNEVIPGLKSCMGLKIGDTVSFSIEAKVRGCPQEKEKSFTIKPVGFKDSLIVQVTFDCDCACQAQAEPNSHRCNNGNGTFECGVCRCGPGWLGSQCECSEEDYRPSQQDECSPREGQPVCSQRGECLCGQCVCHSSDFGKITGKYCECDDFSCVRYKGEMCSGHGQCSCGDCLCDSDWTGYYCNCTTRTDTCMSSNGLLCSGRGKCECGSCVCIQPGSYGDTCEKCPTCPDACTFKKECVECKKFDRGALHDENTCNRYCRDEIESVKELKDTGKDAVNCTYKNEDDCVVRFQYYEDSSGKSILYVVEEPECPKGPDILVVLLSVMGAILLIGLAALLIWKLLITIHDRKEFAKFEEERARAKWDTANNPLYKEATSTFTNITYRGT
T7 sequence (P08648 42-894 limits assumed): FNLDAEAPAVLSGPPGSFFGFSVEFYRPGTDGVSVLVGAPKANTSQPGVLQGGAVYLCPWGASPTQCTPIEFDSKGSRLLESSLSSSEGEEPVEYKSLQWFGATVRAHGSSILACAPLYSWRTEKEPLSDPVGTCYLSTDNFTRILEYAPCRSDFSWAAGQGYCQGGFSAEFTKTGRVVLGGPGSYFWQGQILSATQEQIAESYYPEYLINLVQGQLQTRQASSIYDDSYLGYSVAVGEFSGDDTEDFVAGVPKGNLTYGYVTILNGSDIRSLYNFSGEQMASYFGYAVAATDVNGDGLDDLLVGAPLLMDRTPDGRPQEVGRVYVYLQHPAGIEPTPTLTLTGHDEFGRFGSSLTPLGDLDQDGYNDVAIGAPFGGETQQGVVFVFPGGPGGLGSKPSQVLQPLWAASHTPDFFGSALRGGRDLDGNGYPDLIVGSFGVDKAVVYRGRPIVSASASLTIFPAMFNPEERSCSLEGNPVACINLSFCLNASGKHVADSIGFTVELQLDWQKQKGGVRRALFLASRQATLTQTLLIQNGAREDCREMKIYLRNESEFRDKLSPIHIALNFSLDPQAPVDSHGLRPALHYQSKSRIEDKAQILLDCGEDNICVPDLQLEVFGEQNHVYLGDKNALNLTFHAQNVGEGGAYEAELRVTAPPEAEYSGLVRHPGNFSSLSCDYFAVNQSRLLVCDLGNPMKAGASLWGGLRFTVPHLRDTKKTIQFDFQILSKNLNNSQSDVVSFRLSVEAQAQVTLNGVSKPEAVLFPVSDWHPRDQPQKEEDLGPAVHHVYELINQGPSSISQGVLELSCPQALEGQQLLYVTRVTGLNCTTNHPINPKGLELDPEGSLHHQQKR
T7 sequence (P08648 895-1049 partner limits assumed): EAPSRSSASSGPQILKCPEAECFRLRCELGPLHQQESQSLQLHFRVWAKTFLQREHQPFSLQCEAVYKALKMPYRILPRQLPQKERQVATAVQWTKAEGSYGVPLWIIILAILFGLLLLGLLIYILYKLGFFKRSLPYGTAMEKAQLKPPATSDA
T7 sequence (P05556 21-798): as the sequence (P05556 21-798) above

As for “flavoridin: medium size disintegrin, SEQ ID NO:10”, the “decrease of ability to inhibit ADP-induced platelet aggregation” value in [1] is recorded as roughly 40 fold.
For the compound “Echistatin (ECESGPCCRNCKFLKEGTICKRARGDDMDDYCNGKTCDCPRNPHKGPAT) [reference compound]”, the IC50 in assay [2] (K562 (α6+) cells, α6β1, ligand Lm) is greater than 10 µM; in [3], greater than 10 µM; in [4], greater than 10 µM; in assay [5], 0.13 µM; in assay [7] (Jurkat cells, ligand VCAM-1, read-out: IC50, cell adhesion) it was greater than 10 µM; in assay [8] it was 0.02 to 0.13 µM. The IC50 in assay [9] is greater than 10 µM; in [10], 0.05 µM; in assay [11], 0.05 µM. In addition, the “inhibition of adhesion to laminin of K562 cells transfected with α6” value in [2] (at concentration 10 μM) is reported as “neither echistatin nor EC3 inhibited”. Moreover, in assay [6], the “activity in α4 integrin cell adhesion assays” value is “no detectable activity”. Also, the “inhibition of binding of K562 cells to immobilized fibronectin” value in assay [12] is listed as “inhibited binding”. The “Number of Islets, Infiltration Score ++” value in assay [13] (++ = ⅓ of the islet infiltrated, of 27 (echistatin) or 29 (EC-3) islets, nine weeks i.p.) came to 10. In assay [13] (+++ = ½ or more of the islet infiltrated, of 27 (echistatin) or 29 (EC-3) islets, nine weeks i.p.), the “Number of Islets, Infiltration Score +++” value is 10. In addition, in assay [13] (NOD mice, i.p. three times per week for nine weeks, echistatin 1 μg/mouse, EC-3 3 μg/mouse, 10 animals per group), the “Number of Animals without infiltration” value was determined as 0. In addition, the “effect on lymphocyte infiltration in pancreatic islets of NOD mice (in words)” value in [13] (echistatin 1 μg/mouse, EC-3 3 μg/mouse) is “inactive”; in assay [13] (echistatin 1 μg/mouse, EC-3 3 μg/mouse, listed as echistatin) it was “ineffective”. Besides, in assay [13] (− = no infiltration, of 27 (echistatin) or 29 (EC-3) islets, nine weeks i.p.), the “Number of Islets, Infiltration Score −” value was 5.
For “eristostatin: short disintegrin, potent inhibitor of αIIbβ3, SEQ ID NO:8 (QEEPCATGPCCRRCKFKRAGKVCRVARGDWNDDYCTGKSCDCPRNPWNG; ends and bridges not checked; cysteine pairing not given here; listed as Eristocophis macmahonii)”, the “effect on human melanoma cell (MV3) metastases” value in assay [14] is “inhibits human melanoma cell (MV3) metastases”.
Regarding CKRAMLA^7GLNDYC, in assay [7], the “inhibition of Jurkat cell adhesion to immobilized VCAM-1 (in words)” value was “no significant activity”.
With GRGDSP, the “effect on adhesion of Jurkat cells to immobilized EC3” value in assay [15] is “not effective”.
Turning to RGDS [reference compound], in assay [7] (at this concentration (5 mM)), the “inhibition of Jurkat cell adhesion to immobilized VCAM-1” value was “inactive”.
Turning to `CSCC[C@@H]1NC(=O)[C@H](C)NC(=O)[C@H](CCCNC(=N)N)NC(=O)[C@H](CCCCN)NC(=O)[C@@H](N)CSSC[C@@H](C(=O)O)NC(=O)[C@H](Cc2ccc(O)cc2)NC(=O)[C@H](CC(=O)O)NC(=O)[C@H](CC(N)=O)NC(=O)[C@H](CC(C)C)NC(=O)CNC(=O)[C@H](CC(=O)O)NC(=O)[C@H](CC(C)C)NC1=O` (H-CKRAMLDGLNDYC-OH; disulfide 1-13), in [7], the IC50 is 1000 µM. In addition, the “activity relative to MLDG in molar ratio” value in [7] (Jurkat cells / VCAM-1) is “five fold more active”.
Turning to “phenylacetic acid-Leu-Asp-Phe-d-Pro-amide [CS-1 peptide]”, the “effect on accelerated coronary arteriopathy” value in assay [16] is listed as “reduces accelerated coronary arteriopathy”.
